In the supplement of paper PMC9732359:
± gives the uncertainty stated by the source.

Assay: protein stability index of a GFP-peptide fusion (yeast GPS) (PSI 1-4); higher = more stable; sorted into four equal gates, so the index is relative within each strain
In short: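 Mid-log yeast cultures in leucine-free medium, carrying a pooled plasmid library, were sorted into four equal gates by their GFP/Cherry fluorescence ratio. Each plasmid expressed Cherry along with GFP fused upstream of a tiled 17-residue yeast protein peptide. Plasmids recovered from each gate were PCR-amplified and Illumina-sequenced, with reads assigned to strains by barcodes. The protein stability index was obtained by summing each gate's read frequency weighted by its gate number.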

Sequence | protein stability index (doa10∆) | protein stability index (pdr5∆) | protein stability index (san1∆) | protein stability index (ubr1∆)
IMDNDPVLFNRQPSLHK [RPO21] | 1.77 ± 0.074 | 2.17 ± 0.069 | 2.26 ± 0.23 | 1.84 ± 0.074
KKRKIHNGREGSIEEPE [MCD1] | 3.26 ± 0.066 | 3.24 ± 0.06 | 3.17 ± 0.051 | 3.27 ± 0.042
EIRPEMLGHYLGEFSIT [RPS15] | – | 3.02 ± 0.08 | 3.11 ± 0.19 | 2.87 ± 0.17
TLGNLIRAELLNDRKVL [RPB11] | 3.06 ± 0.17 | 2.74 ± 0.25 | 3.08 ± 0.15 | 2.87 ± 0.23
DVDPIELVVFLPALCKK [RPL8A] | 2.78 ± 0.092 | 2.8 ± 0.089 | 2.64 ± 0.13 | 3.03 ± 0.057
KLQSQSLHTKNVFGTLQ [YLR018C/POM34] | 2.87 ± 0.12 | 2.82 ± 0.12 | 2.29 ± 0.26 | 2.94 ± 0.11
KPSNGKGSRKSSKAATP [SNF12] | 3 ± 0.085 | 3.02 ± 0.076 | 3.24 ± 0.079 | 3.239 ± 0.027
FVFTNEPLTEIKNVIVS [RPP0] | 1.84 ± 0.057 | 2.68 ± 0.089 | 3.12 ± 0.076 | 2.73 ± 0.077
NENRNTGAGVDVNTNAN [SNF11] | 3.11 ± 0.062 | 3.42 ± 0.06 | 3.15 ± 0.039 | 3.36 ± 0.054
TGHPKGAAGAWMMNGAL [FAS2] | 1.98 ± 0.069 | 1.5 ± 0.052 | 1.43 ± 0.12 | 1.66 ± 0.052
SKELRAQYGIKALPIRR [RPL26A] | 3.44 ± 0.19 | 3.41 ± 0.17 | 3.49 ± 0.14 | –
NNNSSNEKEQLSFINPK [SEC65] | 2.83 ± 0.045 | 3.11 ± 0.052 | 2.8 ± 0.034 | 2.92 ± 0.036
TRLTAYQELAYRATSLD [YML031W/NDC1] | 3.13 ± 0.11 | 3.01 ± 0.11 | 3.32 ± 0.072 | 3.04 ± 0.11
MIATNVAARGLDIPNVS [PRP28] | 2.58 ± 0.17 | – | 2.2 ± 0.16 | –
GLLDESPNRLRVRTDDS [YML031W/NDC1] | 1.5 ± 0.098 | 1.82 ± 0.15 | 1.67 ± 0.12 | 1.64 ± 0.051
ATYSNEFKCMSVITAQQ [YGL100W/SEH1] | 1.75 ± 0.053 | 1.48 ± 0.042 | 1.46 ± 0.085 | 2.01 ± 0.031
ADVKGVCTEAGMYALRE [RPT6] | 1.82 ± 0.08 | 2.23 ± 0.094 | 1.97 ± 0.12 | 1.27 ± 0.27
TAAETFKLFNKYRPETA [RPL8A] | 2.8 ± 0.065 | 3 ± 0.059 | 2.64 ± 0.072 | 2.8 ± 0.051
SGKARICIVGGYDDFQE [FAS2] | 2.91 ± 0.15 | 2.24 ± 0.1 | 3.36 ± 0.11 | 1.56 ± 0.17
TSPSYSPTSPSYSPTSP [RPO21] | 2.64 ± 0.045 | 3 ± 0.038 | 2.77 ± 0.033 | 2.81 ± 0.03
NAKRSHMMKRWGYQMVW [POP1] | 1.97 ± 0.052 | 2.38 ± 0.056 | 2.69 ± 0.077 | 2.67 ± 0.055
LTRQPTEGRSRDGGLRL [RET1] | 2.07 ± 0.07 | 2.14 ± 0.077 | 2.06 ± 0.15 | 2.01 ± 0.059
AHMANPLLRKVVDRESD [PRE4] | – | – | 1.13 ± 0.22 | –
AITNTGPREDTTRVGGG [RPS5] | 3.04 ± 0.074 | 3.05 ± 0.073 | 2.9 ± 0.07 | 3.18 ± 0.054
SENAPSASSKEFNFTNL [YAR002W/NUP60] | 2.83 ± 0.052 | 2.94 ± 0.062 | 2.88 ± 0.051 | 2.99 ± 0.056
PPGTGKTLCARAVANRT [RPT1] | 1.26 ± 0.1 | 1.25 ± 0.19 | 1.37 ± 0.18 | 1.27 ± 0.12
DATFAGHSLGEYAALAS [FAS1] | 2.73 ± 0.14 | 3 ± 0.08 | 2.83 ± 0.11 | 2.49 ± 0.073
